According to article doi:10.1101/2024.01.05.574393 (bioRxiv, 2024):
Where a chain is given by its changes, count along the chain named. Names and notes keep the numbering of the source.

B1: FLNCd24 (domain 24 of filamin C, residues 2630-2724), wild type (domain or fragment)
chain: GSKFSSDASKVVTRGPGLSQAFVGQKNSFTVDCSKAGTNMMMVGVHGPKTPCEEVYVKHMGNRVYNVTYTVKEKGDYILIVKWGDESVPGSPFKVKV
B2: FLNCd24 T2677D (phospho-mimic, residues 2630-2724) (domain or fragment)
chain: B1 chain with T50D
B3: FLNCd24 Y2683E (phospho-mimic, residues 2630-2724) (domain or fragment)
chain: B1 chain with Y56E
B4: HSPB7ACD C131S (residues 78-162 of isoform 2) (domain or fragment)
chain: not shown

Legend:
native MS [1] = target: the molecule itself; assay: native MS
[2] = target: HSPB7ΔN (residues 78-175 of isoform 2) (human, UniProt Q9UBY9-2 78-175); assay: native MS
native MS [3] = target: the molecule itself; assay: native MS; remark: listed apart in the source
[4] = target: B1; assay: crystal structure

Binder	Kd (native MS [1]) [nM]	Kd [2] [nM]	stoichiometry N (native MS [3])	binding result [4]
B1	75.9 ± 8.4	6.7 ± 1.4	2	
B2	8.5 ± 1			
B3	4050 ± 557			
B4				binds
